Patent US20230391862A1, “METHOD OF S[…] RESPONSE TO VECTOR-DELIVERED T[…]” (Scout Bio, Inc., priority 2020, published 2023)
Numbering of substitutions follows the chain as printed.

Key:
[1] = Serum level of feNGF mAb in cats by NGF-binding ELISA; type: in vivo, cat
Description: The concentration of FeNGF mAb in cat serum was determined using an NGF-binding ELISA. ELISA plates were coated with 0.1 μg/ml muNGF and blocked with PBS/0.05% Tween 20/1% BSA. muNGF coated wells were incubated for 1 h at room temperature with serum diluted in PBS/0.05% Tween 20/1% BSA in the amount of 100 μl/well. FeNGF antibody concentrations ranging from 1.56 ng/ml to 100 ng/ml were used to establish a binding curve. Well plates were washed following incubation and were then incubated with a 1/10,000 dilution of goat anti-feline IgG-HRP in PBS/0.05% Tween 20/1% BSA. Plates were washed with PBS/0.05% Tween 20 and developed by the addition of 3,3′,5,5′-tetramethylbenzidine (TMB) substrate. Development was stopped by the addition of 2M H2SO4 and the absorbance read at 450 nm and background was subtracted from the resulting reading.
The concentration of feline anti-NGF mAb in cat serum was determined using an NGF-binding ELISA. […] Development was stopped by the addition of 2M H2SO4 and absorbance read at 450 nm and background was subtracted.
The concentration of feline anti-NGF mAbs in cat serum was determined using an NGF-binding ELISA. […] Development was stopped by the addition of 2M H2SO4 and absorbance read at 450 nm and background was subtracted.

[2] = system: anti-transgene product antibody (ATPA) response, anti-(anti-feNGF mAb) antibodies; assay: Bridging immunoassay for anti-transgene product antibodies (ATPA) in cat serum after IM AAV; settings: cats; for ATPA up to 98 days post AAV administration: mAb 2 mg/kg SC 14 days before AAV IM 2.5×10^11 gc/kg
Description: A bridging Immunoassay with acid dissociation was used to evaluate the presence of anti-(anti-feNGF mAb) antibodies in the cat serum. Samples were pre-treated with acid to disrupt any existing ATPA-feNGF mAb complexes before assessment in the bridging assay. Samples were diluted to 2.5% in 300 mM acetic acid to enable ATPA-feNGF mAb complex dissociation before analysis. Acidified samples were incubated for 40 min with shaking at ambient temperature. 25 μl of the acidified samples were transferred to wells of a 96 well plate containing 90 μL of master-mix reagent (0.125 μg/mL of biotinylated feNGF mAb and 0.125 μg/mL of ruthenylated feNGF mAb with 1% Meso Scale Discovery (MSD) Blocker A in PBS-T) and 11 μL 1.2M Tris solution (pH 9.5). Acidified samples plus master-mix reagents were incubated at ambient temperature in the dark for 60 min with shaking. Simultaneously, Streptavidin-coated MSD plates were blocked for 60 min at ambient temperature with 200 μL/well of PBS-T buffer containing 3% (MSD) Blocker A. The Streptavidin-coated MSD plates were then washed and 25 μl of the acidified sample plus master-mix reagent were transferred to the plates which were then incubated at ambient temperature in the dark for 60-90 min with shaking. The MSD plates were washed and then 150 μL of 2×MSD Read T-Buffer was added per well before the plates were read on an MSD MESO QuickPlex SQ 120 instrument. The resulting response was recorded as Relative Light Units (RLU).
A bridging immunoassay with acid dissociation was used to evaluate the presence of anti-(anti-feNGF mAb) antibodies in the cat serum at timepoints when the circulating levels of drug were at the lowest (pre-dose). Samples were pre-treated with acid to disrupt any existing ADA-feNGF mAb complexes before assessment in the bridging assay. Briefly, samples were diluted to 2.5% in 300 mM acetic acid to enable ADA-drug complex dissociation before analysis. Acidified samples were incubated for 40 min with shaking at ambient temperature. 25 μl of the acidified samples were transferred to wells of a 96 well plate containing 90 μL of master-mix reagent (0.125 μg/mL of biotinylated feNGF mAb and 0.125 μg/mL of ruthenylated feNGF mAb with 1% Meso Scale Discovery (MSD) Blocker A in PBS-T) and 11 μL 1.2M Tris solution (pH 9.5). Acidified samples plus master-mix reagents were incubated at ambient temperature in the dark for 60 min with shaking. Simultaneously, Streptavidin-coated MSD plates were blocked for 60 min at ambient temperature with 200 μL/well of PBS-T buffer containing 3% (MSD) Blocker A.
The Streptavidin-coated MSD plates were then washed and 25 ul of the acidified sample plus master-mix reagent were transferred to the plates which were then incubated at ambient temperature in the dark for 60-90 min with shaking. The MSD plates were washed, 150 μL of 2×MSD Read T-Buffer was added per well before the plates were read on an MSD MESO QuickPlex SQ 120 instrument. The resulting response was recorded as Relative Light Units (RLU).
A bridging immunoassay with acid dissociation was used to evaluate the presence of anti-(anti-feNGF mAb) antibodies in the cat serum at timepoints when the circulating levels of drug were at the lowest (pre-dose). Samples were pre-treated with acid to disrupt any existing ADA-feNGF mAb complexes before assessment in the bridging assay. Briefly, samples were diluted to 2.5% in 300 mM acetic acid to enable ADA-drug complex dissociation before analysis. Acidified samples were incubated for 40 min with shaking at ambient temperature.

B1: feNGF mAb: recombinant purified felinized anti-NGF monoclonal antibody, clone JCV4, SEQ ID NOs: 1 and 2 (antibody, V domains shown)
VH: QVQLMESGADLVQPSESLRLTCVASGLSLTNNNVNWVRQAPGKGLEWMGGVWAGGATDYNSALKSRLTITRDTSKNTVFLQMHSLQSEDTATYYCARDGGYSSSTLYAMDAWGQGTTVTVSA
VL: DIEMTQSPLSLSATPGETVSISCRASEDIYNALAWYLQKPGRSPRLLIYNTDTLHTGVPDRFSGSGSGTDFTLKISRVQTEDVGVYFCQHYFHYPRTFGQGTKLELK
modifications: felinized anti-NGF antibody VH Sequence; felinized anti-NGF antibody VL Sequence
With B1 the “expression of feNGF mAb in the serum” value ([1]; mAb 2 mg/kg SC day −14, then AAV.CB7.feNGF IM 2.5×10^11 gc/kg day 0 (FIG. 4B)) was “strong, sustained expression of feNGF mAb was observed”, the “ATPA up to 98 days post AAV administration” value ([2]; Example 7) was “no evidence of ATPA was observed” and the “ATPA response after pre-treatment” value ([2]; pre-treatment, then AAV.CB7.feNGF IM 2.5×10^11 gc/kg at day 0 (FIG. 4E-4H)) was “no ATPA response was observed”.

B2: fNGFV5_1 mAb: purified felinized anti-NGF monoclonal antibody, clone V5_1, SEQ ID NOs: 2 and 5 (antibody, V domains shown)
VL: B1 VL
VH: B1 VH with M5V, A9G, S15G, E16G, L27F, L63V
modifications: felinized anti-NGF antibody VL Sequence; felinized anti-NGF antibody (V5_1) VH Sequence
In the case of B2, the detectable serum antibody ([1]; Example 8, high dose (1×10^13 gc/cat) cohort, the animal with ATPA response) is reported as “sudden loss in detectable serum antibody”, the “ATPA signal following the recombinant mAb administration” value ([2]; Example 7, V5_1 pre-treatment group, did not persist, did not affect transgene expression (FIG. 10F)) is reported as “low, transient ATPA signal was observed in one animal” and the “ATPA up to 98 days post AAV administration” value ([2]; Example 7) is reported as “no evidence of ATPA was observed”. For the same molecule, the “treatment induced ATPA response” value ([2]; Example 8, mAb 2 mg/kg SC day −14, then high dose of AAV (1×10^13 gc/cat)) was “A single treatment induced ATPA response was observed” and the “treatment-emergent immunogenicity up to 56 days post AAV administration” value ([2]; Example 8, mAb 2 mg/kg SC day −14, then medium dose of AAV (1×10^12 gc/cat)) was “no evidence of treatment-emergent immunogenicity was observed”.
